{
  "source": "patent US20200199241A1",
  "about": "(Chugai, published 2020)",
  "binders": {"B1": {"name": "GpH7-B3 variant D265Q/GpL16-k0 (antibody, human IgG1)", "heavy": "not shown", "light": "DIVMTQSPLSLPVTPGEPASISCQASESLVHSNRNTYLHWYLQKPGQSPQLLIYKVSNRFSGVPDRFSGSGSGTDFTLKISRVEAEDVGVYYCSQNTHVPPTFGQGTKVEIE", "notes": "copies: 2 + 2"}, "B2": {"name": "GpH7-B3 variant D265R/GpL16-k0 (antibody, human IgG1)", "heavy": "not shown", "light": "DIVMTQSPLSLPVTPGEPASISCQASESLVHSNRNTYLHWYLQKPGQSPQLLIYKVSNRFSGVPDRFSGSGSGTDFTLKISRVEAEDVGVYYCSQNTHVPPTFGQGTKVEIE", "notes": "copies: 2 + 2"}, "B3": {"name": "GpH7-B3 variant E269H/GpL16-k0 (antibody, human IgG1)", "heavy": "not shown", "light": "DIVMTQSPLSLPVTPGEPASISCQASESLVHSNRNTYLHWYLQKPGQSPQLLIYKVSNRFSGVPDRFSGSGSGTDFTLKISRVEAEDVGVYYCSQNTHVPPTFGQGTKVEIE", "notes": "copies: 2 + 2"}, "B4": {"name": "GpH7-B3 variant E269I/GpL16-k0 (antibody, human IgG1)", "heavy": "not shown", "light": "DIVMTQSPLSLPVTPGEPASISCQASESLVHSNRNTYLHWYLQKPGQSPQLLIYKVSNRFSGVPDRFSGSGSGTDFTLKISRVEAEDVGVYYCSQNTHVPPTFGQGTKVEIE", "notes": "copies: 2 + 2"}, "B5": {"name": "GpH7-B3 variant E269W/GpL16-k0 (antibody, human IgG1)", "heavy": "not shown", "light": "DIVMTQSPLSLPVTPGEPASISCQASESLVHSNRNTYLHWYLQKPGQSPQLLIYKVSNRFSGVPDRFSGSGSGTDFTLKISRVEAEDVGVYYCSQNTHVPPTFGQGTKVEIE", "notes": "copies: 2 + 2"}, "B6": {"name": "GpH7-B3 variant G237Y/GpL16-k0 (antibody, human IgG1)", "heavy": "not shown", "light": "DIVMTQSPLSLPVTPGEPASISCQASESLVHSNRNTYLHWYLQKPGQSPQLLIYKVSNRFSGVPDRFSGSGSGTDFTLKISRVEAEDVGVYYCSQNTHVPPTFGQGTKVEIE", "notes": "copies: 2 + 2"}, "B7": {"name": "GpH7-B3 variant P238E/GpL16-k0 (antibody, human IgG1)", "heavy": "not shown", "light": "DIVMTQSPLSLPVTPGEPASISCQASESLVHSNRNTYLHWYLQKPGQSPQLLIYKVSNRFSGVPDRFSGSGSGTDFTLKISRVEAEDVGVYYCSQNTHVPPTFGQGTKVEIE", "notes": "copies: 2 + 2"}, "B8": {"name": "GpH7-B3 variant G237A/GpL16-k0 (antibody, human IgG1)", "heavy": "not shown", "light": "DIVMTQSPLSLPVTPGEPASISCQASESLVHSNRNTYLHWYLQKPGQSPQLLIYKVSNRFSGVPDRFSGSGSGTDFTLKISRVEAEDVGVYYCSQNTHVPPTFGQGTKVEIE", "notes": "copies: 2 + 2"}, "B9": {"name": "GpH7-B3 variant G237P/GpL16-k0 (antibody, human IgG1)", "heavy": "not shown", "light": "DIVMTQSPLSLPVTPGEPASISCQASESLVHSNRNTYLHWYLQKPGQSPQLLIYKVSNRFSGVPDRFSGSGSGTDFTLKISRVEAEDVGVYYCSQNTHVPPTFGQGTKVEIE", "notes": "copies: 2 + 2"}, "B10": {"name": "GpH7-B3 variant S239R/GpL16-k0 (antibody, human IgG1)", "heavy": "not shown", "light": "DIVMTQSPLSLPVTPGEPASISCQASESLVHSNRNTYLHWYLQKPGQSPQLLIYKVSNRFSGVPDRFSGSGSGTDFTLKISRVEAEDVGVYYCSQNTHVPPTFGQGTKVEIE", "notes": "copies: 2 + 2"}, "B11": {"name": "GpH7-B3 variant S239W/GpL16-k0 (antibody, human IgG1)", "heavy": "not shown", "light": "DIVMTQSPLSLPVTPGEPASISCQASESLVHSNRNTYLHWYLQKPGQSPQLLIYKVSNRFSGVPDRFSGSGSGTDFTLKISRVEAEDVGVYYCSQNTHVPPTFGQGTKVEIE", "notes": "copies: 2 + 2"}},
  "test_in_all_cases": "SPR (Biacore);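 note: antibody variants captured on sensor chip, Fcγ receptor flowed over at 25 °C, bound receptor normalized to amount of captured antibody, expressed relative to reference antibody set as 100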",
  "key": {"human FcγRIa": {"molecular_target": "T1, human FcγRIa (human, UniProt P12314 16-292, limits assumed)", "T1 construct": "also called FcgRIa; FcγRI (CD64)", "T1 sequence (P12314 16-292 limits assumed)": "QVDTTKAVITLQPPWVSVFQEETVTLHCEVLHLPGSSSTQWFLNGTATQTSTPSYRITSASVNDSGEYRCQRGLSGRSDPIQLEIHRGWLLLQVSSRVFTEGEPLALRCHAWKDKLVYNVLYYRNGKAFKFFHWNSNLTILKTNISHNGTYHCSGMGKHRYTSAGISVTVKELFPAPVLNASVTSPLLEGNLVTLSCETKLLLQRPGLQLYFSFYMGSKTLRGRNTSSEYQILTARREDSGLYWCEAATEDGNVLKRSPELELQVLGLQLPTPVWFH"}, "human FcγRIIa(R)": {"molecular_target": "T2, human FcγRIIa(R) (human, UniProt P12318 36-217)", "T2 construct": "also called FcgRIIaR; FcγRIIa type R", "T2 chain": "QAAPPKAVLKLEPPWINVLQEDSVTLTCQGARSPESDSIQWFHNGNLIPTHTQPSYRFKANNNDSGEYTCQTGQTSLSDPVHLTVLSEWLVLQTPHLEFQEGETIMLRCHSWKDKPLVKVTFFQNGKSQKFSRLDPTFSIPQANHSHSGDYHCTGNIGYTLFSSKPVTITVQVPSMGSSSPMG"}, "human FcγRIIa(H)": {"molecular_target": "T3, human FcγRIIa(H) (human, UniProt P12318 36-217)", "T3 construct": "also called FcgRIIaH; FcγRIIa type H", "T3 sequence": "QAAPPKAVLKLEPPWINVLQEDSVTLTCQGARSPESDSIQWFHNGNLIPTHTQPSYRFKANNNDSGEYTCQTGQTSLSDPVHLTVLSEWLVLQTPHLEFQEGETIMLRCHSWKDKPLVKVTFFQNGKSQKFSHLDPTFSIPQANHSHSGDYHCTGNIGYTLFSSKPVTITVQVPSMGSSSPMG"}, "human FcγRIIb": {"molecular_target": "T4, human FcγRIIb (human, UniProt P31994 43-217, limits assumed)", "T4 construct": "also called FcgRIIb", "T4 sequence": "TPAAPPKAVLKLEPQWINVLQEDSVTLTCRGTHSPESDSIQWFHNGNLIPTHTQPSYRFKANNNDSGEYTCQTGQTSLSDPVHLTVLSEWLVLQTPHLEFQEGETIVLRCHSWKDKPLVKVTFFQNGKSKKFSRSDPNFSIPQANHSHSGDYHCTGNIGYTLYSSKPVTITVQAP"}, "human FcγRIIIa(F)": {"molecular_target": "T5, human FcγRIIIa(F) (human, UniProt P08637 17-208, limits assumed)", "T5 construct": "also called FcgRIIIaF; allotype F158", "T5 sequence (P08637 other isoform, or with tags, fused parts or gaps limits assumed)": "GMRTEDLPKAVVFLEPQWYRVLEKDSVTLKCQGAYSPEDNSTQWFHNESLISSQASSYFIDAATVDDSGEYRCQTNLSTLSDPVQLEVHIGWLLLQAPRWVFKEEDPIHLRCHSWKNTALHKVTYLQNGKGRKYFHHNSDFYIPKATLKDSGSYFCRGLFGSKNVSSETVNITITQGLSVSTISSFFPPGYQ"}},
  "data": [
    {"binder": "B1", "values": [
      {"measurement": "relative binding activity", "setting": "human FcγRIa", "result": "67 % of GpH7-B3/GpL16-k0"},
      {"measurement": "relative binding activity", "setting": "human FcγRIIa(R)", "result": "13 % of GpH7-B3/GpL16-k0"},
      {"measurement": "relative binding activity", "setting": "human FcγRIIa(H)", "result": "13 % of GpH7-B3/GpL16-k0"},
      {"measurement": "relative binding activity", "setting": "human FcγRIIb", "result": "4 % of GpH7-B3/GpL16-k0"},
      {"measurement": "relative binding activity", "setting": "human FcγRIIIa(F)", "result": "-1 % of GpH7-B3/GpL16-k0"}
    ]},
    {"binder": "B2", "values": [
      {"measurement": "relative binding activity", "setting": "human FcγRIa", "result": "5 % of GpH7-B3/GpL16-k0"},
      {"measurement": "relative binding activity", "setting": "human FcγRIIa(R)", "result": "-1 % of GpH7-B3/GpL16-k0"},
      {"measurement": "relative binding activity", "setting": "human FcγRIIa(H)", "result": "0 % of GpH7-B3/GpL16-k0"},
      {"measurement": "relative binding activity", "setting": "human FcγRIIb", "result": "-1 % of GpH7-B3/GpL16-k0"},
      {"measurement": "relative binding activity", "setting": "human FcγRIIIa(F)", "result": "-1 % of GpH7-B3/GpL16-k0"}
    ]},
    {"binder": "B3", "values": [
      {"measurement": "relative binding activity", "setting": "human FcγRIa", "result": "95 % of GpH7-B3/GpL16-k0"},
      {"measurement": "relative binding activity", "setting": "human FcγRIIa(R)", "result": "12 % of GpH7-B3/GpL16-k0"},
      {"measurement": "relative binding activity", "setting": "human FcγRIIa(H)", "result": "24 % of GpH7-B3/GpL16-k0"},
      {"measurement": "relative binding activity", "setting": "human FcγRIIIa(F)", "result": "12 % of GpH7-B3/GpL16-k0"}
    ]},
    {"binder": "B4", "values": [
      {"measurement": "relative binding activity", "setting": "human FcγRIa", "result": "94 % of GpH7-B3/GpL16-k0"},
      {"measurement": "relative binding activity", "setting": "human FcγRIIa(R)", "result": "16 % of GpH7-B3/GpL16-k0"},
      {"measurement": "relative binding activity", "setting": "human FcγRIIa(H)", "result": "32 % of GpH7-B3/GpL16-k0"},
      {"measurement": "relative binding activity", "setting": "human FcγRIIIa(F)", "result": "10 % of GpH7-B3/GpL16-k0"}
    ]},
    {"binder": "B5", "values": [
      {"measurement": "relative binding activity", "setting": "human FcγRIa", "result": "96 % of GpH7-B3/GpL16-k0"},
      {"measurement": "relative binding activity", "setting": "human FcγRIIa(R)", "result": "21 % of GpH7-B3/GpL16-k0"},
      {"measurement": "relative binding activity", "setting": "human FcγRIIa(H)", "result": "30 % of GpH7-B3/GpL16-k0"},
      {"measurement": "relative binding activity", "setting": "human FcγRIIb", "result": "13 % of GpH7-B3/GpL16-k0"}
    ]},
    {"binder": "B6", "values": [
      {"measurement": "relative binding activity", "setting": "human FcγRIa", "result": "7 % of GpH7-B3/GpL16-k0"},
      {"measurement": "relative binding activity", "setting": "human FcγRIIa(R)", "result": "77 % of GpH7-B3/GpL16-k0"},
      {"measurement": "relative binding activity", "setting": "human FcγRIIa(H)", "result": "4 % of GpH7-B3/GpL16-k0"},
      {"measurement": "relative binding activity", "setting": "human FcγRIIIa(F)", "result": "0 % of GpH7-B3/GpL16-k0"}
    ]},
    {"binder": "B7", "values": [
      {"measurement": "relative binding activity", "setting": "human FcγRIa", "result": "95 % of GpH7-B3/GpL16-k0"},
      {"measurement": "relative binding activity", "setting": "human FcγRIIa(R)", "result": "21 % of GpH7-B3/GpL16-k0"},
      {"measurement": "relative binding activity", "setting": "human FcγRIIa(H)", "result": "2 % of GpH7-B3/GpL16-k0"},
      {"measurement": "relative binding activity", "setting": "human FcγRIIIa(F)", "result": "1 % of GpH7-B3/GpL16-k0"}
    ]},
    {"binder": "B8", "values": [
      {"measurement": "relative binding activity", "setting": "human FcγRIa", "result": "45 % of GpH7-B3/GpL16-k0"},
      {"measurement": "relative binding activity", "setting": "human FcγRIIa(R)", "result": "85 % of GpH7-B3/GpL16-k0"},
      {"measurement": "relative binding activity", "setting": "human FcγRIIb", "result": "49 % of GpH7-B3/GpL16-k0"},
      {"measurement": "relative binding activity", "setting": "human FcγRIIIa(F)", "result": "4 % of GpH7-B3/GpL16-k0"}
    ]},
    {"binder": "B9", "values": [
      {"measurement": "relative binding activity", "setting": "human FcγRIa", "result": "3 % of GpH7-B3/GpL16-k0"},
      {"measurement": "relative binding activity", "setting": "human FcγRIIa(H)", "result": "0 % of GpH7-B3/GpL16-k0"},
      {"measurement": "relative binding activity", "setting": "human FcγRIIb", "result": "5 % of GpH7-B3/GpL16-k0"},
      {"measurement": "relative binding activity", "setting": "human FcγRIIIa(F)", "result": "0 % of GpH7-B3/GpL16-k0"}
    ]},
    {"binder": "B10", "values": [
      {"measurement": "relative binding activity", "setting": "human FcγRIa", "result": "52 % of GpH7-B3/GpL16-k0"},
      {"measurement": "relative binding activity", "setting": "human FcγRIIa(H)", "result": "13 % of GpH7-B3/GpL16-k0"},
      {"measurement": "relative binding activity", "setting": "human FcγRIIb", "result": "5 % of GpH7-B3/GpL16-k0"},
      {"measurement": "relative binding activity", "setting": "human FcγRIIIa(F)", "result": "1 % of GpH7-B3/GpL16-k0"}
    ]},
    {"binder": "B11", "values": [
      {"measurement": "relative binding activity", "setting": "human FcγRIa", "result": "69 % of GpH7-B3/GpL16-k0"},
      {"measurement": "relative binding activity", "setting": "human FcγRIIa(R)", "result": "19 % of GpH7-B3/GpL16-k0"},
      {"measurement": "relative binding activity", "setting": "human FcγRIIb", "result": "17 % of GpH7-B3/GpL16-k0"},
      {"measurement": "relative binding activity", "setting": "human FcγRIIIa(F)", "result": "19 % of GpH7-B3/GpL16-k0"}
    ]}
  ]
}
